The nature of the series: protein stability index of a GFP-peptide fusion (GPS, HEK-293T) (PSI 1-6); higher = more stable.
Setting [1] is: treatment: DMSO, c terminus: a fixed tail appended.
Setting [2] is: treatment: MLN4924 1 uM, 8 h, c terminus: a fixed tail appended.

The results in this text go back to the supplement of paper PMC10567573.

± gives the standard deviation.
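Further: 24-mer peptide tiles fused after GFP, lentivirally expressed, FACS-sorted into six equal bins by GFP/DsRed ratio, decoded by Illumina sequencing, PSI is the read-weighted mean bin number.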

Regarding YYKPGLLMMCFILPTLVPWYFWGE [SCD], the protein stability index is, setting by setting: under setting [1], 3.24 ± 0.7; under setting [2], 2.83 ± 0.52.

Regarding FSQLEDKFPGQSSFLWQRGRKFLQ [TOR1AIP2], the protein stability index was 2.69 ± 0.22 under setting [1] and 2.75 ± 0.34 under setting [2].

Regarding DVVEDYKKRYEEEINKRTAAENEF [KRT71], the protein stability index by setting is: under setting [1], 5.13 ± 0.093; under setting [2], 5.37 ± 0.3.

For ELHRRLDEEQQVLLSRLEEEEQDI [TRIM39], the protein stability index is, setting by setting: under setting [1], 5.426 ± 0.033; under setting [2], 5.49 ± 0.17.

Regarding NLLALGTDRKLDDGDDKVFRRAPS [PPFIA4], the protein stability index is, setting by setting: under setting [1], 4.51 ± 0.25; under setting [2], 4.5 ± 0.24.

Take TPDTRHPCSLGSSLVADYSDSESE [YJU2B]: the protein stability index is 5.39 ± 0.23 under setting [1] and 5.59 ± 0.25 under setting [2].

With SRLWDSRLRHYLGSRYDARRGVSD [DNAAF3], the protein stability index came out at 3.09 ± 0.33 under setting [1] and 3.23 ± 0.18 under setting [2].

For the sequence EIDTQGRHLAHSMLQRAIAYQHSG [C10orf62], the protein stability index was 2.91 ± 0.24 under setting [1] and 3.15 ± 0.28 under setting [2].

Regarding QQAEKILKSMDKNGTMTIDWNEWR [SLC25A25], the protein stability index under setting [1] was 3.36 ± 0.47 and the protein stability index under setting [2] came out at 3.56 ± 0.39.

Regarding QGEYPPGTSTWQFNFKFNLTEDMY [CNOT7], the protein stability index under setting [1] amounted to 1.9 ± 0.42 and the protein stability index under setting [2] stood at 2.15 ± 0.46.

Regarding VVHDWLYSYVYQDGLRLLGARARG [SOAT2], the protein stability index amounted to 2.46 ± 0.44 under setting [1] and 2.28 ± 0.25 under setting [2].

Regarding ASRLLTTALTSFCAKYTYPVCSAL [FANCE], the protein stability index was found to be 3.29 ± 0.58 under setting [1] and 3.34 ± 0.49 under setting [2].

Consider RCLHMFLQDEIIDKSYTPSKIRHA [SNX3], for which the protein stability index turned out to be 2.05 ± 0.58 under setting [1] and 1.92 ± 0.52 under setting [2].

Sequence PEPVYKLTQRQVNITVQKKVSQWW [HACD3] came in with a protein stability index under setting [1] of 2.35 ± 0.49 and a protein stability index under setting [2] of 2.51 ± 0.31.

For the sequence FPRMLLVDRLPGLQGALDLLAVLC [ZSWIM9], the protein stability index is, setting by setting: under setting [1], 2.29 ± 0.18; under setting [2], 2.25 ± 0.084.

Consider AGSPIRHENAVQGSAVEVQTYQPP [ISL2], for which the protein stability index by setting is: under setting [1], 4.91 ± 0.14; under setting [2], 5.04 ± 0.19.

Regarding TFLTVTDLIGLPWVCFIYTIMSLA [SLC2A12], the protein stability index under setting [1] stood at 3.38 ± 0.45 and the protein stability index under setting [2] turned out to be 2.84 ± 0.58.

As for HVGDFARDLAARWKKLVLVDRNTR [ELOA2], the protein stability index runs as follows: under setting [1], 2.39 ± 0.29; under setting [2], 2.86 ± 0.34.

FACPSQALFFKNIMNIIDIVSILP [KCNA4]: the protein stability index was 3.02 ± 0.073 under setting [1] and 2.85 ± 0.27 under setting [2].

Consider SQGEVEKLIKCDEIQVDSEEPVFE [KLHL12], for which the protein stability index came out at 5.23 ± 0.4 under setting [1] and 5.47 ± 0.25 under setting [2].

VTINIQDLLSCSNFAVQHRYLFEE [MATN2] gave a protein stability index under setting [1] of 2.86 ± 0.35 and a protein stability index under setting [2] of 2.87 ± 0.73.

As to AYEYEREGLYEQAFQLLRRFVQAE [TRADD], the protein stability index reads like this: under setting [1], 2.27 ± 0.31; under setting [2], 2.48 ± 0.26.

MSLVLHGNNLLVFGGTGIPFGESN [KLHDC10] displayed a protein stability index under setting [1] of 2.74 ± 0.69 and a protein stability index under setting [2] of 2.81 ± 0.52.

Consider KGYTPLHAAASNGQINVVKHLLNL [ANKRD44], for which the protein stability index was 2.67 ± 0.21 under setting [1] and 2.69 ± 0.25 under setting [2].

As for MKDISNLEENDETRFILSKVPSEA [SLC6A17], the protein stability index under setting [1] was determined as 4.91 ± 0.24 and the protein stability index under setting [2] is 4.94 ± 0.15.

Take PMTPEDPSFWDCFCFTEEIPIRNG [AASDHPPT]: the protein stability index by setting is: under setting [1], 3.56 ± 0.093; under setting [2], 3.67 ± 0.2.

In the case of SAVARSNSWMGSQGPMSQRRENYG [RBMY1A1], the protein stability index stood at 3.68 ± 0.43 under setting [1] and 3.96 ± 0.5 under setting [2].

As to FWDLFRSKDNMRTRIMIGLTLVFF [SLC2A12], the protein stability index is, setting by setting: under setting [1], 2.53 ± 0.55; under setting [2], 2.67 ± 0.39.

On to VGNISKDLGLAPRELAERGVRIVS [PCDHGA10], for which the protein stability index amounted to 3.57 ± 0.29 under setting [1] and 3.75 ± 0.42 under setting [2].

Turning to QLVSFQKLKLTNNHLDPFGHIILN [TBX5], the protein stability index is 2.33 ± 0.39 under setting [1] and 2.23 ± 0.33 under setting [2].

Turning to SQEEGKSALEDQGSNPSSSNSSQD [PPFIA4], the protein stability index amounted to 5.67 ± 0.16 under setting [1] and 5.62 ± 0.28 under setting [2].

With KRKEEEALKDSLRPKLSEEQQRII [VDR], the protein stability index runs as follows: under setting [1], 5.09 ± 0.26; under setting [2], 5.06 ± 0.23.

PESKEPVEKEEEPDPEPPPVTPQV [SMG5]: the protein stability index under setting [1] is 5.54 ± 0.25 and the protein stability index under setting [2] stood at 5.46 ± 0.38.

With DPVELRRLNFQTPGMASHPPIPIL [PTPRD], the protein stability index reads like this: under setting [1], 2.91 ± 0.19; under setting [2], 3.04 ± 0.33.

As for RQTSTKAVQHFYNIKLEGKVPMHK [ESRRG], the protein stability index is 3.32 ± 0.11 under setting [1] and 3.5 ± 0.26 under setting [2].

Sequence REVILKELAEATWCGISTDMWRSE [ZBED1] had a protein stability index under setting [1] of 2.71 ± 0.62 and a protein stability index under setting [2] of 2.93 ± 0.58.

With WTLRRTKELRKDYQGPGTRRLQEV [DYRK1B], the protein stability index reads like this: under setting [1], 3.11 ± 0.32; under setting [2], 3.1 ± 0.32.

The sequence WKNFDERKEMATILSKMPKPKPPP [CCNC] showed a protein stability index under setting [1] of 3.63 ± 0.28 and a protein stability index under setting [2] of 3.64 ± 0.31.

With VHYMIHEPEPHILLFRRPLPKKPK [CKS1B], the protein stability index reads like this: under setting [1], 2.39 ± 0.23; under setting [2], 2.57 ± 0.35.

Turning to KLFESVECYDPRTQQWTAICPLKE [GAN], the protein stability index by setting is: under setting [1], 2.5 ± 0.38; under setting [2], 2.82 ± 0.13.

As for GLAFFTFPNIASATKFKQLYRSRM [HMOX1], the protein stability index by setting is: under setting [1], 2.39 ± 0.78; under setting [2], 1.98 ± 0.34.

Consider NFRVGKKIGCGNFGELRLGKNLYT [CSNK1G1], for which the protein stability index reads like this: under setting [1], 2.24 ± 0.4; under setting [2], 2.11 ± 0.15.

Regarding GHGNKVLCMDWCKDKRRIVSSSQD [GNB5], the protein stability index runs as follows: under setting [1], 3.64 ± 0.28; under setting [2], 3.85 ± 0.45.

As to KLRHDLKKTSITQQPSKHRTDEEL [PLK2], the protein stability index reads like this: under setting [1], 4.915 ± 0.039; under setting [2], 5.1 ± 0.15.

In the case of LFVIRGQPADVFPRLFKEWNITKL [CRY1], the protein stability index reads like this: under setting [1], 2.18 ± 0.29; under setting [2], 2.24 ± 0.32.

In turn, PFPLGASAQNGLASSLPAEVHSLT [PLAGL1] returned a protein stability index under setting [1] of 3.94 ± 0.089 and a protein stability index under setting [2] of 4.09 ± 0.16.

Take TIYGKTFRVVDCDQFTQVFLESQG [EFHC1]: the protein stability index by setting is: under setting [1], 2.19 ± 0.25; under setting [2], 2.29 ± 0.39.

With IEKWVILEKDFSIYGGELGPMMKL [ACSBG2], the protein stability index amounted to 2.56 ± 0.71 under setting [1] and 2.38 ± 0.44 under setting [2].

On to TDVQKKKLVDAIVSGDTSKLMKIL [RIPK4], for which the protein stability index was determined as 2.78 ± 0.73 under setting [1] and 2.77 ± 0.31 under setting [2].

With MMKAKGDLEMKEEEEISETGELVG [ZBED2], the protein stability index under setting [1] was 5.59 ± 0.27 and the protein stability index under setting [2] was determined as 5.35 ± 0.26.

For RSYIKLFQAPCQRCGKFLQDGLPP [MED27], the protein stability index reads like this: under setting [1], 2.19 ± 0.17; under setting [2], 2 ± 0.1.

In the case of SEREANDALNAYVCKGLPQHEEIC [INTS3], the protein stability index runs as follows: under setting [1], 4.56 ± 0.23; under setting [2], 4.52 ± 0.25.

On to HVTHWMGQPFNSDDRNTACHHGLV [DLC1], for which the protein stability index was found to be 2.51 ± 0.28 under setting [1] and 2.92 ± 0.31 under setting [2].

On to LGIPYYETSVVAQFGIKDVFDNAI [RHOBTB2], for which the protein stability index by setting is: under setting [1], 2.17 ± 0.18; under setting [2], 2.14 ± 0.23.

With NARRKLKGAILTTMLATRNFSAAK [CAMK2B], the protein stability index is 3.08 ± 0.33 under setting [1] and 3.15 ± 0.36 under setting [2].

Regarding FFSKRFKSAAMLAVFAVSAVVHEY [SOAT1], the protein stability index was determined as 2.35 ± 0.9 under setting [1] and 3.06 ± 0.41 under setting [2].

In the case of MVIHIPEEPRPSRPRYKADVPDLQ [KCNK9], the protein stability index came out at 3.02 ± 0.21 under setting [1] and 3.24 ± 0.18 under setting [2].

For the sequence GDKLKFLSMLLTLKCEMNQMSGEP [ACSBG2], the protein stability index was 2.38 ± 1.1 under setting [1] and 2.56 ± 1 under setting [2].

With NPPRAEFNYSVGFKDLNESLNALE [APBB1IP], the protein stability index under setting [1] is 3.48 ± 0.26 and the protein stability index under setting [2] is 3.65 ± 0.21.

In the case of GHGTRKRVPLGRLELLEEVLALGL [RSAD1], the protein stability index was 2.15 ± 0.21 under setting [1] and 2.3 ± 0.51 under setting [2].

As for FKLDKKYQRPQDSEDMWGDEDFTF [FBF1], the protein stability index reads like this: under setting [1], 4.12 ± 0.18; under setting [2], 4.14 ± 0.23.

As to VRQINRKTPVPGKARKKSSCQLL [RAP1B], the protein stability index runs as follows: (treatment: DMSO, c terminus: native) 4.5 ± 0.27; (treatment: MLN4924 1 uM, 8 h, c terminus: native) 4.44 ± 0.18.

Turning to RVQGVLRGRAREREQLQAEASERF [HES6], the protein stability index under setting [1] turned out to be 4.39 ± 0.32 and the protein stability index under setting [2] came out at 4.48 ± 0.25.

RIDELIESGKEEGMKIDLIDGKGR [KMT5A]: the protein stability index under setting [1] is 4.96 ± 0.23 and the protein stability index under setting [2] is 4.85 ± 0.33.

In turn, MCRLEELGLAGRCLTLTPRPATEA [HDAC6] displayed a protein stability index under setting [1] of 2.21 ± 0.22 and a protein stability index under setting [2] of 2.27 ± 0.095.

As for SLIPPRSEQLVNFTGKAEMGGPFS [TMEM106C], the protein stability index runs as follows: under setting [1], 3.65 ± 0.34; under setting [2], 3.47 ± 0.3.

In the case of CNDLFKVNPFQLQQFRADPSTASL [TIAF1], the protein stability index is, setting by setting: under setting [1], 2.71 ± 0.063; under setting [2], 2.78 ± 0.18.

DWLRRPLGEDNQPETQLFWDKEPW [TLE6]: the protein stability index by setting is: under setting [1], 3.35 ± 0.34; under setting [2], 3.22 ± 0.43.

For the sequence QPVQSKPQKASAPAADPPRYTFAP [PDLIM7], the protein stability index was determined as 4.37 ± 0.27 under setting [1] and 4.44 ± 0.3 under setting [2].

In turn, YAMGITECDNMLMLLSVSQSMSEE [SEPHS2] showed a protein stability index under setting [1] of 2.16 ± 0.31 and a protein stability index under setting [2] of 2.44 ± 0.22.

With NARRRLKKENKMTWAPKNKGGEER [IRX6], the protein stability index is, setting by setting: under setting [1], 4.51 ± 0.27; under setting [2], 4.63 ± 0.098.

With LGLFTLILTEPAQAQKCYRDLALV [INTS3], the protein stability index is 3.14 ± 0.36 under setting [1] and 2.79 ± 0.35 under setting [2].
